According to US8278415B2, “Dimeric high affinity EGFR constructs and uses thereof” (Centocor, Inc., priority 2006, dated 2012):

Key:
sEGFR-MMB = target: T1, sEGFR-MMB (Homo sapiens, UniProt P00533); test: P190-MMB constructs, solid phase assays (BIAcore and ELISA) on immobilized sEGFR-MMB; type: binding
T1 construct: made in house; host or cells: HEK 293E
Text: In contrast, 190-MMB as the 4316 construct, binds EGFR and the presence of excess EGF promotes its binding.

A431 cells = test: FACS of P190-MMB constructs or cetuximab on A431 cells; type: cell-based, human; settings: excess EGF
EGFR = target: T2, EGFR (Homo sapiens, UniProt P00533); test: FACE (Fast Activated Cell-based ELISA) of EGFR phosphorylation
T2 construct: endogenous in cells

B1: 4316: P190-MMB construct with the longest linker, Flex GGGGS, n 4, SEQ ID NO: 81 (protein)
chain: GGDPCTWEVWGRECLQGGGGSGGGGSGGGGSGGGGSCPPCPAPEAAGGPSVFLFPPKPKDTLMISRTPEVTCVVVDVSQEDPEVQFNWYVDGVEVHNAKTKPREEQFNSTYRVVSVLTVLHQDWLNGKEYKCKVSNKGLPSSIEKTISKAKGQPREPQVYTLPPSQEEMTKNQVSLTCLVKGFYPSDIAVEWESNGQPENNYKTTPPVLDSDGSFFLYSRLTVDKSRWQEGNVFSCSVMHEALHNHYTQKSLSLSLGK
on-rate (sEGFR-MMB; BIAcore, no dissociation constant obtained): much more pronounced on-rate than the other constructs
binding in solid phase assays and cell-based FACS (sEGFR-MMB; comparison of linker lengths): best binder
effect of EGF on binding to A431 (A431 cells): enhanced binding
interference with EGF activation of EGFR (EGFR): nor interfere with EGF activation of EGFR
EGFR phosphorylation (receptor activation) (EGFR; absence of EGF): did not induce EGFR phosphorylation
